Test results from patent publication US20250064951A1, “DENDRITIC POLYELECTROLYTE ZWITTERIONS, JANUS-TYPE CONJUGATE COMPRISING SAME AND USES THEREOF” (ArtProBio Co., Ltd., priority 2023, published 2025).
Ends that are not written are not given here.

Key:
BSA = BSA (Bos taurus, UniProt P02769); test: EMSA of non-fouling property for proteins (BSA); format: binding
Text: The mixing ratio was R/B ratio, wherein the R/B ratio was arginine/BSA ratio. […] For visualization, the bands were stained with Coomassie brilliant blue R-250.
The mixing ratio was peptide/BSA ratio, wherein the peptide/BSA ratio was peptide/BSA (w/w). […] For visualization, the bands were stained with Coomassie brilliant blue R-250.

HCT116 cells [1] = test: Cytotoxicity, WST-8 assay in HCT116 cells; format: cell-based, human; details: 0, 1.25, 2.5, 5, 10 μM, 4 hours
Procedure: The cytotoxicity of the G2 Janus-type dendritic polyelectrolyte zwitterions according to the present disclosure (JDPZ, (+M)2(−M)2 conjugate_1) was analyzed using HCT116 cells (human colon cancer cells). Specifically, HCT116 cells were subcultured in DMEM supplemented with 10% FBS (fetal bovine serum), dispensed into each well at 1×10^4 cells/well, and cultured at 37° C. for 24 hours. The cells were treated with the samples (Example 5-1 and Comparative Examples 1-1 to 1-3) at various concentrations (0, 1.25, 2.5, 5, 10 μM), respectively, and incubated at 37° C. for 4 hours. WST-8 solution was added to the cultured cells, and absorbance was measured at 450 nm with a microplate reader (Perkin-Elmer, USA) 4 hours later.

[2] = DLS size, size distribution and zeta potential; format: physicochemical; details: for Diameter (nm) in DW / Diameter (nm) in PBS: DLS
yeast rRNA = test: EMSA of non-fouling property for rRNA; format: binding; details: 200 ng yeast rRNA; various peptide/RNA (w/w) ratios; room temperature 1 hour
Procedure: It was confirmed through EMSA (electrophoretic mobility shift assay) that the dendrimer structure of the present disclosure has non-fouling property for various genetic materials present in the body when administered in vivo. 200 ng of yeast rRNA (ribosomal RNA) was prepared as a model genetic material and mixed with the Janus-type dendritic polyelectrolyte zwitterion of Example 5-4 (JDPZ ((+6)2(−6)2 conjugate_1)) at various concentration ratios. The mixing ratio was peptide/RNA ratio, wherein the peptide/RNA ratio was peptide/RNA (w/w). After reacting the mixture at room temperature for 1 hour, electrophoresis was performed on a 2% agarose gel at 90 V for 100 minutes. For visualization, the bands were stained with SYBR Gold nucleic acid gel stain (Invitrogen, USA).
The Janus-type dendrimer structure of Comparative Example 1-2 ((+3)2(Ø3)2 conjugate) was used as a control group instead of the JDPZ of Example 5-4 ((+6)2(−6)2 conjugate_1).

HCT116 cells [3] = test: Intracellular delivery efficiency in HCT116 cells by flow cytometry; format: cell-based, human; details: summary statement, b342
Procedure: To confirm the intracellular delivery efficiency, HCT116 cells were subcultured in DMEM supplemented with 10% FBS (fetal bovine serum), dispensed into each well at 1-3×10^4 cells/well, and cultured at 37° C. for 24 hours. The cells were treated with the (+6)2(−6)2 conjugate_FAM prepared in Example 6-2 at a concentration of 10 μM and incubated at 37° C. for 4 hours. Afterwards, the cells were washed with Dulbecco's phosphate-buffered saline (DPBS), trypsinized, resuspended in DPBS supplemented with 10% cell dissociation buffer (GIBCO) and 1% FBS, and then analyzed using a flow cytometer (BD LSR II SORT flow cytometer, BD Bioscience, USA) for analysis of intracellular fluorescence.

HeLa cells = test: Cytotoxicity, WST-8 assay in HeLa cells; format: cell-based; details: 0, 2, 4, 8, 16, 32, 64 and 128 μM, 4 hours
Procedure: Since DPZ contains both polyelectrolytes and zwitterions in a single molecule, it is expected to have non-fouling property and low toxicity, while also having advantageous intracellular delivery efficiency due to its interaction with the cell membrane. Cytotoxicity was analyzed first. HeLa cells were subcultured in DMEM supplemented with 10% FBS (fetal bovine serum), dispensed into each well at 1×10^4 cells/well, and cultured at 37° C. for 24 hours. The cells were treated with the samples (Examples 1-1 to 1-6 or Comparative Examples 3-1 and 3-2) at various concentrations and then cultured at 37° C. for 4 hours. WST-8 solution was added to the cultured cells, and absorbance was measured at 450 nm with a microplate reader (Perkin-Elmer, USA) 4 hours later.
Cytotoxicity was analyzed using HeLa cells. Specifically, HeLa cells were subcultured in DMEM supplemented with 10% FBS (fetal bovine serum), dispensed into each well at 1×10^4 cells/well, and cultured at 37° C. for 24 hours. The cells were treated with the samples (Examples 3-1 to 3-6) at various concentrations and then cultured at 37° C. for 4 hours. WST-8 solution was added to the cultured cells, and absorbance was measured at 450 nm with a microplate reader (Perkin-Elmer, USA) 4 hours later.

[4] = 1 μg BSA, various peptide/BSA (w/w) ratios, room temperature 1 hour

Chain of BSA (P02769 25-607): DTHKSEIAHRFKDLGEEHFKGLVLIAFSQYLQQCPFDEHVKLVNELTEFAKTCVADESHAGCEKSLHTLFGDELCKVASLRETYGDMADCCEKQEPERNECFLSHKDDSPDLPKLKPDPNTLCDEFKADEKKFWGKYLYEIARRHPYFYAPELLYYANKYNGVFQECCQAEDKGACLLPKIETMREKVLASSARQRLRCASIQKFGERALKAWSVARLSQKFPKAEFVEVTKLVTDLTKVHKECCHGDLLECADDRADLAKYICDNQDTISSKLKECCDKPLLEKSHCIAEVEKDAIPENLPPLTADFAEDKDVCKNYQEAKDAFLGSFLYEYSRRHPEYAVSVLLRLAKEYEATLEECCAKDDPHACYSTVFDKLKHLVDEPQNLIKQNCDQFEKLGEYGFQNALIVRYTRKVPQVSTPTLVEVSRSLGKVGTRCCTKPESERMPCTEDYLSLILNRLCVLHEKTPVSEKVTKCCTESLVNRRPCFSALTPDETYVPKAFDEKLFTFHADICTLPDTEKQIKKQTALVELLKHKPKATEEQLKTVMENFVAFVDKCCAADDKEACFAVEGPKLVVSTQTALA

Compound | cytotoxicity (HCT116 cells [1]) | Net charge [2] | Zeta potential (mV) [2] | Diameter (nm) in DW [2] [nm] | Diameter (nm) in PBS [2] | further results
CC(=O)NCCCCCCCCCCCC(=O)NCCCCC(NC(=O)CCCCCCCCCCCNC(C)=O)C(=O)NCCCCC(NC(=O)C(CCCCNC(=O)CCCCCCCCCCCNC(C)=O)NC(=O)CCCCCCCCCCCNC(C)=O)C(=O)NCCCCC(NC(=O)C(CCCCNC(=O)C(CCCCNC(=O)C(CO)NC(=O)C(CO)NC(=O)C(CO)NC(C)=O)NC(=O)C(CCCNC(=N)N)NC(=O)C(CCCNC(=N)N)NC(=O)C(CCCNC(=N)N)NC(C)=O)NC(=O)C(CCCCNC(=O)C(CO)NC(=O)C(CO)NC(=O)C(CO)NC(C)=O)NC(=O)C(CCCNC(=N)N)NC(=O)C(NCCNC(=N)N)NC(=O)C(CCCNC(=N)N)NC(C)=O)C(N)=O (stereo not drawn) [Comparative Example 1-2, reference compound] | very high toxicity | +6 | +52.8 mV | 742.3 | 5,688.2 nm | binding to BSA (non-fouling property), EMSA (BSA; [4]): binds easily to BSA; interaction with rRNA (non-fouling property), EMSA (yeast rRNA): forms a non-specific interaction with rRNA even under the low-concentration rRNA condition; cellular delivery efficiency (HCT116 cells [3]): high cellular delivery efficiency
Ac-EEEEEEEEEEEERRRRRRRRRRRR-NH2 [Comparative Example 3-2] | – | – | – | – | – | cytotoxicity (HeLa cells): do not cause toxicity in the cells
Comparative Example 3-1: peptide in which cationic and anionic amino acids are linked alternately (Ac-ERERERERERERERERERERERERERER) | – | – | – | – | – | cytotoxicity (HeLa cells): do not cause toxicity in the cells
CC(=O)NCCCCCCCCCCCC(=O)NCCCCC(NC(=O)CCCCCCCCCCCNC(C)=O)C(=O)NCCCCC(NC(=O)C(CCCCNC(=O)CCCCCCCCCCCNC(C)=O)NC(=O)CCCCCCCCCCCNC(C)=O)C(=O)NCCCCC(NC(=O)C(CCCCNC(=O)C(CCCCNC(=O)[C@H](CCC(=O)O)NC(=O)[C@H](CCC(=O)O)NC(=O)[C@H](CCC(=O)O)NC(=O)[C@H](CCC(=O)O)NC(=O)[C@H](CCC(=O)O)NC(=O)[C@H](CCC(=O)O)NC(C)=O)NC(=O)[C@H](CCCCC(=N)N)NC(=O)[C@H](CCCNC(=N)N)NC(=O)[C@H](CCCNC(=N)N)NC(=O)[C@H](CCCNC(=N)N)NC(=O)[C@H](CCCNC(=N)N)NC(=O)[C@H](CCCNC(=N)N)NC(C)=O)NC(=O)C(CCCCNC(=O)[C@H](CCCNC(=N)N)NC(=O)[C@H](CCCNC(=N)N)NC(=O)[C@H](CCCNC(=N)N)NC(=O)[C@H](CCCNC(=N)N)NC(=O)[C@H](CCCNC(=N)N)NC(=O)[C@H](CCCNC(=N)N)NC(C)=O)NC(=O)[C@H](CCC(=O)O)NC(=O)[C@H](CCC(=O)O)NC(=O)[C@H](CCC(=O)O)NC(=O)[C@H](CCC(=O)O)NC(=O)[C@H](CCC(=O)O)NC(=O)[C@H](CCC(=O)O)NC(C)=O)C(N)=O (stereo partly drawn) [Example 5-4] | – | 0 | +35.2 mV | 649.0 | 128.9 nm | binding to BSA (non-fouling property), EMSA (BSA; [4]): hardly binds to BSA; interaction with rRNA (non-fouling property), EMSA (yeast rRNA): forms interaction only under high-concentration conditions in which rRNA is present in an amount exceeding 10 times
CC(=O)NCCCCCCCCCCCC(=O)NCCCCC(NC(=O)CCCCCCCCCCCNC(C)=O)C(=O)NCCCCC(NC(=O)C(CCCCNC(=O)CCCCCCCCCCCNC(C)=O)NC(=O)CCCCCCCCCCCNC(C)=O)C(=O)NCCCCC(NC(=O)C(CCCCNC(=O)C(CCCCNC(=O)C(CCCNC(=N)N)NC(=O)C(CCCNC(=N)N)NC(=O)C(CCCNC(=N)N)NC(C)=O)NC(=O)C(CCCNC(=N)N)NC(=O)C(CCCNC(=N)N)NC(=O)C(CCCNC(=N)N)NC(C)=O)NC(=O)C(CCCCNC(=O)C(CCCNC(=N)N)NC(=O)C(CCCNC(=N)N)NC(=O)C(CCCNC(=N)N)NC(C)=O)CC(=O)C(CCCNC(=N)N)NC(=O)C(CCCNC(=N)N)NC(=O)C(CCCNC(=N)N)NC(C)=O)C(N)=O (stereo not drawn) [Comparative Example 1-1] | very high toxicity | – | – | – | – | cellular delivery efficiency (HCT116 cells [3]): high cellular delivery efficiency
linear peptide R12: linear peptide with 12 arginines, same number of cationic residues as Example 1-6 (RRRRRRRRRRRR; not fully specified (some residues)) | – | – | – | – | – | binding to BSA (non-fouling property), EMSA (BSA; 0.5 μg BSA, various R/B (arginine/BSA) ratios, room temperature 12 hours): interacts with BSA and induces EMS
CC(=O)NCCCCCCCCCCCC(=O)NCCCCC(NC(=O)CCCCCCCCCCCNC(C)=O)C(=O)NCCCCC(NC(=O)C(CCCCNC(=O)CCCCCCCCCCCNC(C)=O)NC(=O)CCCCCCCCCCCNC(C)=O)C(=O)NCCCCC(NC(=O)C(CCCCNC(=O)C(CCCCNC(=O)[C@H](CCC(=O)O)NC(=O)[C@H](CCC(=O)O)NC(=O)C(CCC(=O)O)NC(C)=O)NC(=O)[C@H](CCCCC(=N)N)NC(=O)[C@H](CCCNC(=N)N)NC(=O)[C@H](CCCNC(=N)N)NC(C)=O)NC(=O)C(CCCCNC(=O)[C@H](CCCNC(=N)N)NC(=O)[C@H](CCCNC(=N)N)NC(=O)[C@H](CCCNC(=N)N)NC(C)=O)NC(=O)[C@H](CCC(=O)O)NC(=O)[C@H](CCC(=O)O)NC(=O)[C@H](CCC(=O)O)NC(C)=O)C(N)=O (stereo partly drawn) [Example 5-1] | does not exhibit cytotoxicity | 0 | +42.3 mV | 109.8 | 75.4 nm | –
